The values below come from article PMC3553987.

For this data set, the target named is c-Myc;Max isoform (human;human, UniProt P01106;P61244 16-454;2-160, |). Description: TIRF-PBM.
Sequence of c-Myc;Max isoform (P01106 16-454, chain 1 of 2): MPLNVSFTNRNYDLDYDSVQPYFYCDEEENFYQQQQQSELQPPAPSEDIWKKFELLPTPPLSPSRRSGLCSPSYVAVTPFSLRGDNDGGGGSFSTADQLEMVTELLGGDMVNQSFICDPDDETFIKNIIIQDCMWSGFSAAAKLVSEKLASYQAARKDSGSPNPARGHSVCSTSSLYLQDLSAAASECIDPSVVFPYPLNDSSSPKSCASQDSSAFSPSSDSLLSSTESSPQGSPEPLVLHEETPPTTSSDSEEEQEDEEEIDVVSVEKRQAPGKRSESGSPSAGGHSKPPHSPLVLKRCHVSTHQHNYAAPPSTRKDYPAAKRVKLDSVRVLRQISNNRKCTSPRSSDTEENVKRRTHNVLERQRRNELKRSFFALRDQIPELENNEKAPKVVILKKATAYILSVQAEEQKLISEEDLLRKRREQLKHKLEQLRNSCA
Sequence of c-Myc;Max isoform (P61244 2-160, chain 2 of 2): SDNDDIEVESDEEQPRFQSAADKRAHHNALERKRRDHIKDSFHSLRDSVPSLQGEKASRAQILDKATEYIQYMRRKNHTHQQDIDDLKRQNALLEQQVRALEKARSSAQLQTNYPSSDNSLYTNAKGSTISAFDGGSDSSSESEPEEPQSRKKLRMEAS

B1: sequence 7 (12 A repeat) (dsDNA)
DNA 1: GCTACGAGCGCAAAAAAAAAAAAATGATAGCAAGCTCAAGTCAATCGGTCC
DNA 2: GGACCGATTGACTTGAGCTTGCTATCATTTTTTTTTTTTTGCGCTCGTAGC
modifications: 5' amino on one strand, coupled to hydrogel
B1: the binding result is “binds”.
